Laboratory results taken from paper PMC4032242.

Target: type I IFN-β receptor (human (endogenous in A549 and Daudi)) (UniProt P48551)
Chain of UniProt P48551 (P48551 27-515): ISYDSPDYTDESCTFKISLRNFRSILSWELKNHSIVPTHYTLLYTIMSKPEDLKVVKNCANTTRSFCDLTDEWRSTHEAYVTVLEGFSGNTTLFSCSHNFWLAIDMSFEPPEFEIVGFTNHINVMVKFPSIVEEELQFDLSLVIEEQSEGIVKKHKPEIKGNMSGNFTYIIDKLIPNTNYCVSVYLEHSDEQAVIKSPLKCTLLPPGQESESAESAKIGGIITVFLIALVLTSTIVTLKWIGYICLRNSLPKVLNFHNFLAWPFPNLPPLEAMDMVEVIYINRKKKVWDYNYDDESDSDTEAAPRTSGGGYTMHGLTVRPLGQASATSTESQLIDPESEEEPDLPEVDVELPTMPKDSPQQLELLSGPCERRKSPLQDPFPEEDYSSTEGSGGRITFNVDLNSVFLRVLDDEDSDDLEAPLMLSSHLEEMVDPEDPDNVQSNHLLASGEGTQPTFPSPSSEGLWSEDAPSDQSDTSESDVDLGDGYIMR

| Substance | 50% response in a FACS assay of IFN-inducible expression of MHC class I on the surface of A549 cells [pg/mL] | IC50 in the antiproliferative assay (Daudi cells, 48 hr) [ng/mL] | in vitro anti-viral activity (protection of A549 cells against the cytopathic effect of EMCV), average of three lots [IU/mg] | in vitro anti-viral activity (protection of A549 cells against the cytopathic effect of EMCV), average of two lots [IU/mg] | in vitro anti-viral activity (protection of A549 cells against the cytopathic effect of EMCV) [IU/mg] |
| --- | --- | --- | --- | --- | --- |
| R27T (rhIFN-β mutein with N-glycosylation at the 25th and 80th amino acid) (from UniProt P01574 22-187) (ligand) | 265 | 0.014 | 2.99e+08 |  |  |
| R27TΔGlyc (from UniProt P01574 22-187) (ligand) | 359 | 0.022 |  | 2.52e+08 |  |
| Rebif (recombinant human interferon-β 1a) (from UniProt P01574 22-187) (ligand) | 238 | 0.029 |  |  | 2.88e+08 |
